In patent US5876710A, “Compounds and compositions for delivering active agents” (Emisphere Technologies Inc., priority 1997, dated 1999):

Set-up: species or system Rats
Settings: rat, in vivo, po, 1 mg/kg

## interferon
  Mean peak serum interferon concentration: 1951±1857
